The subject of this data set is Escherichia coli TOP10. As to the kind of experiment: shrunken log2 fold change of peptide-encoding DNA abundance (4.5 h post-induction vs induction); higher = less antimicrobial activity (less host growth inhibition). Conditions: time post-induction: 4.5 h; library: site-saturation at positions 5, 18, 19, 20.
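Note: peptides expressed intracellularly from a pBAD plasmid library in pooled LB shake-flask culture, induced with 0.3% L-arabinose, DNA abundance read by NGS, three biological replicates, DESeq2 with apeglm shrinkage.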

Take RRIRCRPPRLPRPRPRPPSEPRP: the “shrunken log2 fold change” value came to 0.102. As to RRIRQRPPRLPRPRPRPRQGPRP, the “shrunken log2 fold change” value was 0.0279. As for RRIRPRPPRLPRPRPRPTTMPRP, the “shrunken log2 fold change” value was -0.126. With RRIRVRPPRLPRPRPRPERAPRP the figure was 0.264. Regarding RRIRVRPPRLPRPRPRPMIWPRP, the “shrunken log2 fold change” value is -0.179. In the case of RRIRGRPPRLPRPRPRPTDRPRP, the “shrunken log2 fold change” value worked out at 0.0231. For the sequence RRIRFRPPRLPRPRPRPGQHPRP, the “shrunken log2 fold change” value is 0.176.

Take RRIRKRPPRLPRPRPRPRVFPRP: the “shrunken log2 fold change” value came out at 0.701.

Consider RRIRLRPPRLPRPRPRPYEMPRP, for which the “shrunken log2 fold change” value is -0.468. With RRIRSRPPRLPRPRPRPKWIPRP, the “shrunken log2 fold change” value is -0.553. Regarding RRIRTRPPRLPRPRPRPWQAPRP, the “shrunken log2 fold change” value was found to be 0.177.

Take RRIRQRPPRLPRPRPRPEAWPRP: the “shrunken log2 fold change” value came out at 0.316. Then RRIRYRPPRLPRPRPRPTFYPRP, with -0.803. On to RRIRIRPPRLPRPRPRPEFRPRP, for which the “shrunken log2 fold change” value turned out to be 0.239. Regarding RRIRERPPRLPRPRPRPTVAPRP, the “shrunken log2 fold change” value was determined as 0.075. With RRIRARPPRLPRPRPRPNAFPRP the figure was 0.424. Then RRIRQRPPRLPRPRPRPMPHPRP, with -0.0205. Take RRIRARPPRLPRPRPRPFKVPRP: the “shrunken log2 fold change” value stood at 0.0346. Consider RRIRNRPPRLPRPRPRPTTVPRP, for which the “shrunken log2 fold change” value was -0.12. Regarding RRIRVRPPRLPRPRPRPAFLPRP, the “shrunken log2 fold change” value worked out at 0.0548. Take RRIRWRPPRLPRPRPRPTGAPRP: the “shrunken log2 fold change” value came to 0.337. As for RRIRPRPPRLPRPRPRPEYAPRP, the “shrunken log2 fold change” value worked out at 0.0857. Take RRIRCRPPRLPRPRPRPDYEPRP: the “shrunken log2 fold change” value was -0.373. Take RRIRGRPPRLPRPRPRPEWKPRP: the “shrunken log2 fold change” value was 1.3. On to RRIRRRPPRLPRPRPRPENKPRP, for which the “shrunken log2 fold change” value is -0.0891. Then RRIRMRPPRLPRPRPRPFYEPRP, with 0.027; and RRIRVRPPRLPRPRPRPWTYPRP, with -1.3. For the sequence RRIRPRPPRLPRPRPRPDGSPRP, the “shrunken log2 fold change” value was -0.00717. Regarding RRIRTRPPRLPRPRPRPMQNPRP, the “shrunken log2 fold change” value was -0.0815. As to RRIRRRPPRLPRPRPRPCCGPRP, the “shrunken log2 fold change” value stood at 0.0161. RRIRCRPPRLPRPRPRPNTIPRP: the “shrunken log2 fold change” value was -0.553. RRIRWRPPRLPRPRPRPGMNPRP: the “shrunken log2 fold change” value is -0.0747. In the case of RRIRHRPPRLPRPRPRPYQLPRP, the “shrunken log2 fold change” value was -0.0135. Then RRIRRRPPRLPRPRPRPGQMPRP, with 0.0545; and RRIRGRPPRLPRPRPRPYAQPRP, with 0.104. RRIRPRPPRLPRPRPRPPDPPRP: the “shrunken log2 fold change” value is 0.742. As for RRIRNRPPRLPRPRPRPFSTPRP, the “shrunken log2 fold change” value was -0.226. Then RRIRERPPRLPRPRPRPNKCPRP, with -0.522; and RRIRDRPPRLPRPRPRPIGSPRP, with -0.693.

On to RRIRVRPPRLPRPRPRPVQGPRP, for which the “shrunken log2 fold change” value came out at 0.0692. With RRIRGRPPRLPRPRPRPFAFPRP, the “shrunken log2 fold change” value is 0.531. As to RRIRDRPPRLPRPRPRPARNPRP, the “shrunken log2 fold change” value stood at 0.316.

Regarding RRIRMRPPRLPRPRPRPQCKPRP, the “shrunken log2 fold change” value was -0.0461.

As to RRIRYRPPRLPRPRPRPKAKPRP, the “shrunken log2 fold change” value came out at 0.0915. With RRIRDRPPRLPRPRPRPEWNPRP the figure was 0.546; with RRIRFRPPRLPRPRPRPNHAPRP, 0.0222. As to RRIRLRPPRLPRPRPRPDCMPRP, the “shrunken log2 fold change” value was -0.0708. Then RRIRNRPPRLPRPRPRPMCPPRP, with -0.0135; and RRIRSRPPRLPRPRPRPYCGPRP, with -0.726. For RRIRVRPPRLPRPRPRPTEFPRP, the “shrunken log2 fold change” value was -0.143. Then RRIRCRPPRLPRPRPRPDEVPRP, with 0.00585; and RRIRPRPPRLPRPRPRPWFHPRP, with 0.0116; and RRIRGRPPRLPRPRPRPTEWPRP, with 1.23. Regarding RRIRIRPPRLPRPRPRPYNNPRP, the “shrunken log2 fold change” value was -0.462. Take RRIRNRPPRLPRPRPRPPNPPRP: the “shrunken log2 fold change” value was 0.411. Then RRIRGRPPRLPRPRPRPHQVPRP, with 0.078. Regarding RRIRARPPRLPRPRPRPKYTPRP, the “shrunken log2 fold change” value was -0.013. As for RRIRVRPPRLPRPRPRPGAGPRP, the “shrunken log2 fold change” value stood at 0.284. With RRIRDRPPRLPRPRPRPPQMPRP the figure was 0.746. With RRIRCRPPRLPRPRPRPDQSPRP the figure was 0.112; with RRIRRRPPRLPRPRPRPSLQPRP, 0.334.

Take RRIRHRPPRLPRPRPRPRDYPRP: the “shrunken log2 fold change” value came out at 0.0554. Then RRIRARPPRLPRPRPRPEEVPRP, with 0.0554; and RRIRNRPPRLPRPRPRPGWNPRP, with 0.324; and RRIRPRPPRLPRPRPRPPKPPRP, with 0.0495.

RRIRSRPPRLPRPRPRPLALPRP: the “shrunken log2 fold change” value is -0.107. With RRIRNRPPRLPRPRPRPQPWPRP, the “shrunken log2 fold change” value was -0.00313. On to RRIRVRPPRLPRPRPRPPMYPRP, for which the “shrunken log2 fold change” value is -0.366.

RRIRKRPPRLPRPRPRPMCRPRP: the “shrunken log2 fold change” value came out at 0.625.

RRIRHRPPRLPRPRPRPGGFPRP: the “shrunken log2 fold change” value is -0.127. Then RRIRLRPPRLPRPRPRPRIFPRP, with -0.263; and RRIRQRPPRLPRPRPRPKPWPRP, with 0.502; and RRIRFRPPRLPRPRPRPFAYPRP, with 0.0263.

With RRIRERPPRLPRPRPRPWNMPRP, the “shrunken log2 fold change” value was -0.0894. With RRIRGRPPRLPRPRPRPDDEPRP the figure was 1.27.

Regarding RRIRLRPPRLPRPRPRPDPEPRP, the “shrunken log2 fold change” value turned out to be 0.0928. Then RRIRFRPPRLPRPRPRPVQAPRP, with 0.183; and RRIRQRPPRLPRPRPRPPARPRP, with 0.23.

In the case of RRIRTRPPRLPRPRPRPVHSPRP, the “shrunken log2 fold change” value was -0.0193. For the sequence RRIRERPPRLPRPRPRPLRVPRP, the “shrunken log2 fold change” value was determined as 0.269. With RRIRCRPPRLPRPRPRPKMEPRP, the “shrunken log2 fold change” value was -0.204. With RRIRTRPPRLPRPRPRPARAPRP the figure was 0.786; with RRIRIRPPRLPRPRPRPIHEPRP, -0.316; with RRIRPRPPRLPRPRPRPHCKPRP, -0.633. With RRIRKRPPRLPRPRPRPPVPPRP, the “shrunken log2 fold change” value worked out at 0.794. With RRIRSRPPRLPRPRPRPCCSPRP the figure was -0.00502; with RRIRTRPPRLPRPRPRPKNGPRP, 0.0173; with RRIRCRPPRLPRPRPRPCYYPRP, -1.31. Then RRIRFRPPRLPRPRPRPSGYPRP, with 0.00547. Consider RRIRWRPPRLPRPRPRPVQHPRP, for which the “shrunken log2 fold change” value was 0.136. With RRIRIRPPRLPRPRPRPEKDPRP, the “shrunken log2 fold change” value was -0.0191. With RRIRKRPPRLPRPRPRPTRRPRP the figure was 0.964. On to RRIRLRPPRLPRPRPRPHYCPRP, for which the “shrunken log2 fold change” value is -0.0889. Then RRIRNRPPRLPRPRPRPAPDPRP, with 0.147. Then RRIRWRPPRLPRPRPRPSVHPRP, with -0.136. Consider RRIRYRPPRLPRPRPRPVRFPRP, for which the “shrunken log2 fold change” value was -0.0685.

For RRIRYRPPRLPRPRPRPQGYPRP, the “shrunken log2 fold change” value was -0.516.

Regarding RRIRFRPPRLPRPRPRPSSVPRP, the “shrunken log2 fold change” value was -0.503.

For the sequence RRIRERPPRLPRPRPRPDRCPRP, the “shrunken log2 fold change” value was determined as 0.0731. Turning to RRIRCRPPRLPRPRPRPHVMPRP, the “shrunken log2 fold change” value was -0.743. Then RRIRIRPPRLPRPRPRPEGWPRP, with 0.497; and RRIRSRPPRLPRPRPRPWLSPRP, with -0.00679; and RRIRLRPPRLPRPRPRPERYPRP, with -0.0429. Then RRIRYRPPRLPRPRPRPWSHPRP, with -0.05; and RRIRDRPPRLPRPRPRPQKKPRP, with -0.0848; and RRIRQRPPRLPRPRPRPLHDPRP, with -0.346. For the sequence RRIRGRPPRLPRPRPRPVGLPRP, the “shrunken log2 fold change” value was found to be 0.954. With RRIRWRPPRLPRPRPRPSMKPRP the figure was -0.199. Then RRIRERPPRLPRPRPRPRRPPRP, with 0.27; and RRIRRRPPRLPRPRPRPDGTPRP, with 0.0222; and RRIRKRPPRLPRPRPRPNFMPRP, with -0.117. With RRIRRRPPRLPRPRPRPEIVPRP, the “shrunken log2 fold change” value is 0.246. With RRIRVRPPRLPRPRPRPGFSPRP, the “shrunken log2 fold change” value was -0.101. As for RRIRSRPPRLPRPRPRPFGTPRP, the “shrunken log2 fold change” value is 0.0399.

Turning to RRIRCRPPRLPRPRPRPWETPRP, the “shrunken log2 fold change” value is 0.323. As to RRIRIRPPRLPRPRPRPKEHPRP, the “shrunken log2 fold change” value was -0.15.

RRIRTRPPRLPRPRPRPLTQPRP: the “shrunken log2 fold change” value was -0.309.

As to RRIRGRPPRLPRPRPRPPPIPRP, the “shrunken log2 fold change” value worked out at 1.16.

RRIRRRPPRLPRPRPRPCPDPRP: the “shrunken log2 fold change” value was -0.0762. In the case of RRIRTRPPRLPRPRPRPHYWPRP, the “shrunken log2 fold change” value is -0.25. Turning to RRIRTRPPRLPRPRPRPLVFPRP, the “shrunken log2 fold change” value is -0.214. On to RRIRYRPPRLPRPRPRPQTIPRP, for which the “shrunken log2 fold change” value is -0.0196. As to RRIRSRPPRLPRPRPRPGICPRP, the “shrunken log2 fold change” value worked out at 0.137. Then RRIRARPPRLPRPRPRPCQMPRP, with -0.0341; and RRIRKRPPRLPRPRPRPTMYPRP, with -0.0949.

Values taken from the supplement of paper PMC9112550, “Optimization of the antimicrobial peptide Bac7 by deep mutational scanning” (BMC Biology, 2022).
